Measured values from publication PMC4700190.
Each block holds one substance with its values, some of them ahead of it.

Tests used:
[1] = target: CynD W56C (Bacillus pumilus); assay: SEC; Superdex 200 10/300 GL, 0.1 M MOPS pH 7.7, 0.5 ml/min; His-tag purified protein; column calibrated with a marker kit, and with wild-type B. pumilus CynD (18-mer) and P. stutzeri CynD (14-mer)
[2] = target: CynD M223C (Bacillus pumilus); assay: as above
[3] = target: CynD R231C (Bacillus pumilus); assay: as above
[4] = target: CynD K68C (Bacillus pumilus); assay: as above
[5] = target: CynD L226C (Bacillus pumilus); assay: as above
[6] = target: cyanide dihydratase from Bacillus pumilus (CynD), wild type (Bacillus pumilus); assay: as above
[7] = target: CynD G61C (Bacillus pumilus); assay: as above
[8] = target: CynD H62C (Bacillus pumilus); assay: as above
[9] = target: CynD F59C (Bacillus pumilus); assay: as above
[10] = target: CynD E235C (Bacillus pumilus); assay: as above
[11] = target: CynD I60C (Bacillus pumilus); assay: as above
[12] = target: CynD F234C (Bacillus pumilus); assay: as above
[13] = target: CynD E64C (Bacillus pumilus); assay: as above
[14] = target: CynD H71C (Bacillus pumilus); assay: as above
[15] = target: CynD E72C (Bacillus pumilus); assay: as above
[16] = target: CynD P63C (Bacillus pumilus); assay: as above
[17] = target: CynD A58C (Bacillus pumilus); assay: as above
[18] = target: CynD P55C (Bacillus pumilus); assay: as above
[19] = target: CynD C225A (Bacillus pumilus); assay: as above
[20] = target: CynD I224C (Bacillus pumilus); assay: as above
[21] = target: CynD T66C (Bacillus pumilus); assay: as above
[22] = target: CynD F57C (Bacillus pumilus); assay: as above
[23] = target: CynD R67C (Bacillus pumilus)
[24] = target: CynD E222C (Bacillus pumilus); assay: SEC; Superdex 200 10/300 GL, 0.1 M MOPS pH 7.7, 0.5 ml/min; His-tag purified protein; column calibrated with a marker kit, and with wild-type B. pumilus CynD (18-mer) and P. stutzeri CynD (14-mer)
[25] = target: CynD T227C (Bacillus pumilus); assay: as above
[26] = target: CynD D232C (Bacillus pumilus); assay: as above
[27] = target: CynD F69C (Bacillus pumilus); assay: as above
[28] = target: CynD from Pseudomonas stutzeri (Pseudomonas stutzeri); assay: as above
[29] = target: CynD Y65C (Bacillus pumilus); assay: as above
[30] = target: CynD Y233C (Bacillus pumilus); assay: as above
[31] = target: CynD Q230C (Bacillus pumilus); assay: as above
[32] = target: CynD Y70C (Bacillus pumilus); assay: as above
[33] = target: CynD E229C (Bacillus pumilus); assay: as above

stoichiometry N [1]: 16 subunits
Substance: CynD W56C (enzyme)

stoichiometry N [2]: 18 subunits
Substance: CynD M223C (enzyme)

stoichiometry N [3]: 18 subunits
Substance: CynD R231C (enzyme)

stoichiometry N [4]: 18 subunits
Substance: CynD K68C (enzyme)

stoichiometry N [5]: 18 subunits
Substance: CynD L226C (enzyme)

stoichiometry N [6]: 18 subunits
Substance: cyanide dihydratase from Bacillus pumilus (CynD), wild type (enzyme)

stoichiometry N [7]: 14 subunits
Substance: CynD G61C (enzyme)

stoichiometry N [8]: 18 subunits
Substance: CynD H62C (enzyme)

stoichiometry N [9]: 18 subunits
Substance: CynD F59C (enzyme)

stoichiometry N [10]: 18 subunits
Substance: CynD E235C (enzyme)

stoichiometry N [11]: 18 subunits
Substance: CynD I60C (enzyme)

stoichiometry N [12]: 16 subunits
Substance: CynD F234C (enzyme)

stoichiometry N [13]: 16 subunits
Substance: CynD E64C (enzyme)

stoichiometry N [14]: 16 subunits
Substance: CynD H71C (enzyme)

stoichiometry N [15]: 18 subunits
Substance: CynD E72C (enzyme)

stoichiometry N [16]: 18 subunits
Substance: CynD P63C (enzyme)

stoichiometry N [17]: 18 subunits
Substance: CynD A58C (enzyme)

stoichiometry N [18]: 18 subunits
Substance: CynD P55C (enzyme)

stoichiometry N [19]: 18 subunits
Substance: CynD C225A (enzyme)

stoichiometry N [20]: 18 subunits
Substance: CynD I224C (enzyme)

stoichiometry N [21]: 16 subunits
Substance: CynD T66C (enzyme)

stoichiometry N [22]: 14 subunits
Substance: CynD F57C (enzyme)

activity of the purified protein relative to wild type, picric acid cyanide assay [23]: < 10%
Substance: CynD R67C (enzyme)

stoichiometry N [24]: 18 subunits
Substance: CynD E222C (enzyme)

stoichiometry N [25]: 18 subunits
Substance: CynD T227C (enzyme)

stoichiometry N [26]: 18 subunits
Substance: CynD D232C (enzyme)

stoichiometry N [27]: 16 subunits
Substance: CynD F69C (enzyme)

stoichiometry N [28]: 14 subunits
Substance: CynD from Pseudomonas stutzeri (enzyme)

stoichiometry N [29]: 18 subunits
Substance: CynD Y65C (enzyme)

stoichiometry N [30]: 16 subunits
Substance: CynD Y233C (enzyme)

stoichiometry N [31]: 18 subunits
Substance: CynD Q230C (enzyme)

stoichiometry N [32]: 16 subunits
Substance: CynD Y70C (enzyme)

stoichiometry N [33]: 18 subunits
Substance: CynD E229C (enzyme)
